According to patent US20160287732A1, “TUMOR THERAPY BY BISPECIFIC ANTIBODY PRETARGETING” (IMMUNOMEDICS, INC., priority 2015, published 2016):
Where two headings read alike, the source gives them in different places. Numbered stars: 1 amine (or outer) side, 2 acyl side, 3 side chain; on linkers, the order of the positions; unused ones are H or OH. Square brackets hold non-standard residues; d marks the D form. Side chains are listed from the residue outwards. Ends that are not written are not given here. Peptide text beside a SMILES is read from it. * marks the point of attachment. X1 = CCc1c2c(nc3ccc(O)cc13)-c1cc3c(c(=O)n1C2)COC(=O)[C@@]3(CC)OC(=O)*; DOTA = O=C(O)CN1CCN(CC(=O)O)CCN(CC(=O)*)CCN(CC(=O)O)CC1; NH(2-(imidazol-4-yl)ethyl) = c1ncc(CCN*)[nH]1; Suc = O=C(CCC(=O)[*:2])[*:1]

Experiments:
[1] = ^111In IMP 453 biodistribution in scLS174T tumor-bearing nude mice, with or without TF2 pretargeting; format: in vivo; conditions: nude, mouse
From the text: (§1) The higher uptake in the kidneys of pretargeted mice is probably due the presence of bispecific antibody in the blood or kidney. […] In the absence of TF2, there was little uptake of labeled peptide into the tumor (Table 5).

[2] = test system: LS174 human colon cancer cell line; assay: as above; format: in vivo; conditions: for Tissue uptake, Kidney / Tissue uptake, Tumor: 3 Hr
From the text: as §1

in vivo = assay: in vivo; design: species or system mice; conditions: mouse
Description: (§2) IMP288 was labeled with ^213Bi and in vitro binding characteristics (IC50, Kd, internalization) were compared with those of ^177Lu-IMP288. Tumor targeting of ^213Bi-IMP288 was studied in mice with s.c. LS174T xenografts that were pretargeted with TF2 bispecific antibody. Finally, the effect of ^213Bi-IMP288 (2.5-14 MBq) on the growth of LS174T tumors was assessed.

s.c. LS174T xenografts = assay: in vivo; design: species or system mice; conditions: mouse
Description: as §2

LS174T tumors = assay: Effect of ^213Bi-IMP288 on growth of TF2-pretargeted LS174T tumors; format: in vivo, nude mice; conditions: single injection; 5 nmol TF2 then 0.28 nmol ^213Bi-IMP288
Description: FIG. 5. Growth curves of subcutaneous LS174T xenografts in nude mice. Mice were injected with 5 nmol TF2 bispecific antibody, followed by a single injection of 0.28 nmol ^213Bi-IMP288 or PBS.
as §2

PKA = conditions: cited from earlier work
TF2 (human) = assay: in vitro binding assay, format and partner not described; TF2 (anti-CEA x anti-HSG) is the pretargeting antibody of the example
[3] = test system: human colorectal adenocarcinoma xenografts (LS 174T); assay: Pretargeting study with ^125I-TF2 and ^99mTc-IMP-245 in mice bearing s.c. LS 174T xenografts; format: in vivo, female athymic nude mice; conditions: pretargeted with TF2
Description: A pretargeting study was performed with TF2 in female athymic nude mice bearing s.c. human colorectal adenocarcinoma xenografts (LS 174T). Cells were expanded in tissue culture until enough cells had been grown to inject 55 mice s.c. with 1×10^7 cells per mouse. After one week, tumors were measured and mice assigned to groups of 5 mice per time-point. The mean tumor size at the start of this study was 0.105±0.068 cm^3. Twenty mice were injected with 80 μg ^125I-TF2 (500 pmoles, 2 μCi) and 16 h later administered ^99mTc-IMP-245 (40 μCi, 92 ng, 50 pmoles). The mice were sacrificed and necropsied at 0.5, 1, 4, and 24 h post-peptide injection. In addition, 3 mice of the 24 h time-point groups were imaged on a γ-camera at 1, 4, and 24 h post-injection. As a control, 3 additional mice received only ^99mTc-IMP-245 (no pretargeting) and were imaged at 1, 4, and 24 h post-injection, before being necropsied after the 24 h imaging session. Tumor as well as various tissues were removed and placed in a γ-counter to determine % ID/g in tissue at each time-point.

[4] = target: DDD of the RII form of PKA (Homo sapiens, UniProt P13861); conditions: cited from earlier work
RIIα dimers = RIIα dimers (Homo sapiens, UniProt P13861); conditions: read-out: Affinity / binding constant; cited from earlier work
RII isoform of PKA = RII isoform of PKA (Homo sapiens, UniProt P13861); conditions: cited from earlier work
[5] = blood, pretargeted with TF2, read-out: Tissue uptake, Blood
[6] = kidney, pretargeted with TF2, read-out: Tissue uptake, Kidney
[7] = large intestine, pretargeted with TF2, read-out: Tissue uptake, Lg. Int.
[8] = liver, pretargeted with TF2, read-out: Tissue uptake, Liver
[9] = lung, pretargeted with TF2, read-out: Tissue uptake, Lung
[10] = small intestine, pretargeted with TF2, read-out: Tissue uptake, Sm. Int.
[11] = spleen, pretargeted with TF2, read-out: Tissue uptake, Spleen
[12] = stomach, pretargeted with TF2, read-out: Tissue uptake, Stomach
[13] = tumor, pretargeted with TF2, read-out: Tissue uptake, Tumor

Sequence of DDD of the RII form of PKA (P13861 whole entry): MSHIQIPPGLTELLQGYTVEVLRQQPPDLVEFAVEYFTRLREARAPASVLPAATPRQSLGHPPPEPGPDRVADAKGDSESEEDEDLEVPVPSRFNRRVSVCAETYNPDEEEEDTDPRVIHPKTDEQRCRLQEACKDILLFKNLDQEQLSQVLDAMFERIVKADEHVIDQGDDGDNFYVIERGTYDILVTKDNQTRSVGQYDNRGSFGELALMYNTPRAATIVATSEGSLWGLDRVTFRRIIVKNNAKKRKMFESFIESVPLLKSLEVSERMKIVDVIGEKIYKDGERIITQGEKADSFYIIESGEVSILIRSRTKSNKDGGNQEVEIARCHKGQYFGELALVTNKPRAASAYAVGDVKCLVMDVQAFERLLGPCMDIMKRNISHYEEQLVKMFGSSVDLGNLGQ
Sequence of RII isoform of PKA (P13861 whole entry, canonical isoform): as the sequence (P13861 whole entry) above
Sequence of RIIα dimers (P13861 whole entry, canonical isoform): as the sequence (P13861 whole entry) above
Sequence of TF2 (human) (heavy, as listed by the source, chain 1 of 2): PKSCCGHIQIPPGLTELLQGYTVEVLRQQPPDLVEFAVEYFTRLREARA
Sequence of TF2 (human) (heavy, as listed by the source, chain 2 of 2): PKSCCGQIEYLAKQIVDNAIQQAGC

CCc1c2c(nc3ccc(O)cc13)-c1cc3c(c(=O)n1C2)COC(=O)[C@@]3(CC)OC(=O)SC[C@@H](NC(=O)CN1CCN(CC(=O)O)CCN(CC(=O)O)CCN(CC(=O)O)CC1)C(=O)N[C@H](C)C(=O)N[C@H](CCCCNC(=O)CNC(=O)CCC(=O)NCCc1cnc[nH]1)C(=O)N[C@H](Cc1ccc(O)cc1)C(=O)N[C@H](CCCCNC(=O)CNC(=O)CCC(=O)NCCc1cnc[nH]1)C(N)=O [^111In IMP 453, metal not drawn] ({DOTA}-[dC](X1)[dA][dK]([Gly-Suc-NH(2-(imidazol-4-yl)ethyl)])[dY][dK]([Gly-Suc-NH(2-(imidazol-4-yl)ethyl)])-NH2)
tissue uptake at 3 h [1, 5]: 0.29 ± 0.03 %ID/g | tissue uptake at 3 h ([1]; blood, without bsMAb, read-out: Tissue uptake, Blood): 0.24 ± 0.01 %ID/g | tissue uptake at 24 h [1, 5]: 0.09 ± 0.04 %ID/g | tissue uptake at 48 h [1, 5]: 0.04 ± 0.01 %ID/g | tissue uptake at 3 h [1, 6]: 21.1 ± 4.14 %ID/g | tissue uptake at 3 h ([1]; kidney, without bsMAb, read-out: Tissue uptake, Kidney): 9.97 ± 0.94 %ID/g | tissue uptake at 24 h [1, 6]: 10 ± 2.45 %ID/g | tissue uptake at 48 h [1, 6]: 7.11 ± 1.17 %ID/g | tissue uptake at 3 h [1, 7]: 1.23 ± 1.41 %ID/g | tissue uptake at 3 h ([1]; large intestine, without bsMAb, read-out: Tissue uptake, Lg. Int.): 0.52 ± 0.27 %ID/g | tissue uptake at 24 h [1, 7]: 0.23 ± 0.05 %ID/g | tissue uptake at 48 h [1, 7]: 0.16 ± 0.07 %ID/g | tissue uptake at 3 h [1, 8]: 0.56 ± 0.08 %ID/g | tissue uptake at 3 h ([1]; liver, without bsMAb, read-out: Tissue uptake, Liver): 0.37 ± 0.18 %ID/g | tissue uptake at 24 h [1, 8]: 0.53 ± 0.19 %ID/g | tissue uptake at 48 h [1, 8]: 0.36 ± 0.06 %ID/g | tissue uptake at 3 h [1, 9]: 0.56 ± 0.1 %ID/g | tissue uptake at 3 h ([1]; lung, without bsMAb, read-out: Tissue uptake, Lung): 0.31 ± 0.14 %ID/g | tissue uptake at 24 h [1, 9]: 0.18 ± 0.07 %ID/g | tissue uptake at 48 h [1, 9]: 0.14 ± 0.03 %ID/g | tissue uptake at 3 h [1, 10]: 0.68 ± 0.45 %ID/g | tissue uptake at 3 h ([1]; small intestine, without bsMAb, read-out: Tissue uptake, Sm. Int.): 0.2 ± 0.1 %ID/g | tissue uptake at 24 h [1, 10]: 0.22 ± 0.09 %ID/g | tissue uptake at 48 h [1, 10]: 0.12 ± 0.03 %ID/g | tissue uptake at 3 h [1, 11]: 0.37 ± 0.11 %ID/g | tissue uptake at 3 h ([1]; spleen, without bsMAb, read-out: Tissue uptake, Spleen): 0.22 ± 0.07 %ID/g | tissue uptake at 24 h [1, 11]: 0.66 ± 0.89 %ID/g | tissue uptake at 48 h [1, 11]: 0.25 ± 0.07 %ID/g | tissue uptake at 3 h [1, 12]: 0.41 ± 0.33 %ID/g | tissue uptake at 3 h ([1]; stomach, without bsMAb, read-out: Tissue uptake, Stomach): 0.11 ± 0.06 %ID/g | tissue uptake at 24 h [1, 12]: 0.2 ± 0.12 %ID/g | tissue uptake at 48 h [1, 12]: 0.07 ± 0.01 %ID/g | tissue uptake at 3 h [1, 13]: 28.3 ± 4.03 %ID/g | tissue uptake at 3 h ([1]; tumor, without bsMAb, read-out: Tissue uptake, Tumor): 0.37 ± 0.09 %ID/g | tissue uptake at 24 h [1, 13]: 15.4 ± 1.18 %ID/g | tissue uptake at 48 h [1, 13]: 9.69 ± 1.97 %ID/g | Tissue uptake, Kidney ([2]; pretargeted with TF2): 21 % ID/g | Tissue uptake, Tumor ([2]; pretargeted with TF2): 28 % ID/g | Tissue uptake, Kidney ([2]; without bsMAb): 9.97 % ID/g | Tissue uptake, Tumor ([2]; without bsMAb): little uptake | Initial kidney uptake eliminated ([2]; by 24 hr, pretargeted with TF2): 50% | Route of clearance ([2]; pretargeted with TF2): Most of the peptide was cleared by urinary excretion

NC(=O)[C@@H](CCCCNC(=O)CNC(=O)CCC(=O)NCCc1c[nH]cn1)NC(=O)[C@@H](CCC(=O)O)NC(=O)[C@@H](CCCCNC(=O)CNC(=O)CCC(=O)NCCc1c[nH]cn1)NC(=O)[C@@H](Cc1ccc(O)cc1)NC(=O)CN1CCN(CC(=O)O)CCN(CC(=O)O)CCN(CC(=O)O)CC1 [^213Bi-IMP288, metal not drawn] ({DOTA}-[dY][dK]([Gly-Suc-NH(2-(imidazol-4-yl)ethyl)])[dE][dK]([Gly-Suc-NH(2-(imidazol-4-yl)ethyl)])-NH2)
tissue uptake at 0.25 h (in vivo): 9.3 ± 2 %ID/g | Tumor targeting relative to ^177Lu-IMP288 (s.c. LS174T xenografts): comparable | Tumor growth (LS174T tumors): significantly inhibited

DLIEEAASRIVDAVIEQVKAAGAY [Ht-31]
PKA isoform preference (PKA): greater affinity for the RII isoform

FEELAWKIAKMIWSDVFQQC [PV-38]
PKA isoform preference (PKA): higher affinity for RI

IMP288 (peptide)
IQ (TF2 (human)): 0.8 nM

IMP-245: di-HSG-based peptide effector labeled with ^99mTc (FKYKK; not fully specified; also: labelled with 99mTc)
Tumor uptake ([3]; 0.5 h post-peptide injection): 22±3 % ID/g | Tumor uptake ([3]; 1 h post-peptide injection): 30±14 % ID/g | Tumor uptake ([3]; 4 h post-peptide injection): 25±4 % ID/g | Tumor uptake ([3]; 24 h post-peptide injection): 16±3 % ID/g

LEQYANQLADQIIKEATE [RIAD]
PKA isoform preference (PKA): higher affinity for RI

PEDAELVRLSKRDVENAVLKAVQQY [AKAP7δ-L308D-pep]
Affinity for the RII DDD sequence [4]: particularly high affinities

PEDAELVRLSKRLVENAVLKAVQQY [AKAP7δ-wt-pep]
Affinity for the RII DDD sequence [4]: particularly high affinities

PEDAELVRTSKRLVENAVLKAVQQY [AKAP7δ-L304T-pep]
Affinity for the RII DDD sequence [4]: particularly high affinities

QIEYLAKQIVDNAIQQA [AKAP-IS]
Kd (RIIα dimers): 0.4 nM | Affinity for the RII DDD sequence [4]: particularly high affinities

QIEYVAKQIVDYAIHQA [SuperAKAP-IS]
Selectivity for the RII isoform of PKA compared with the RI isoform (RII isoform of PKA): five order of magnitude higher
